From patent publication US20190010233A1 (JIANGSU HYAMAB PHARMACEUTICAL, published 2019)
Changes are numbered by the printed parent chain.

B1: chimeric anti-PD-L1 antibody 192D9E7 (antibody, V domains shown)
VH: EVQLVESGGGLVQPGGSLRLSCAASGFTFSSYWMSWVRQAPGKGLEWVADIKQDGSEKYYVDSVKGRFTISRDNAKNSLYLQMNSLRAEDTAVYYCTRDKPHWGGVMDAWGQGTSVTVSS
VL: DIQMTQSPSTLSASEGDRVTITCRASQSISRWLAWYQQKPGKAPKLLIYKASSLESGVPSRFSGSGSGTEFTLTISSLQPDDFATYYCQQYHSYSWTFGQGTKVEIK
notes: Purified from hybridoma of Harbour H2L2 mice: human variable regions, rat constant regions
B2: chimeric anti-PD-L1 antibody 73D3G2 (antibody, V domains shown)
VH: EVQLVESGGGLVQPGGSLRLSCAASGFTFNTYWMNWVRQAPGRGLEWVANIKQDGGEKYYVDSVKGRFTISRDNAKNSLYLQMNSLRAEDTAMYYCARDGRSWYPDAFDIWGQGTVVTVSS
VL: DIQMTQSPSTLSASVGDRVTITCRASQSISTWLAWYQQKLGKAPKLLIYEVSILESGVPSRFSGSGSGTEFTLTISSLQPDDFATYYCQQYHSFSSFGGGTRVEIK
notes: as for B1
B3: chimeric anti-PD-L1 antibody 78A11F6 (antibody, V domains shown)
VH: EVQLVESGGGLVQPGGSLRLSCAASGITFSSYWMSWVRQTPGKGLEWVANIKQDGSEKYYVKSVKGRFTISRDNAKNSLYLQMNSLRAEDTAVYYCVRDRAVPGTGAFDIWGQGTMVIVSS
VL: DIQMTQSPSTLSASVGDRVTITCRASQSISNWLAWYQQKPGKAPKLLIYKASSLESGVPSRFSGSGSGTEFTLTISSLQPDDFATYYCQQYDSSLFTFGQGTKLEIK
notes: as for B1
B4: chimeric anti-PD-L1 antibody 73G11B3 (antibody, V domains shown)
VH: B3 VH with A23V, A24V, I27F, K62D, F68L, F108L, I118T
VL: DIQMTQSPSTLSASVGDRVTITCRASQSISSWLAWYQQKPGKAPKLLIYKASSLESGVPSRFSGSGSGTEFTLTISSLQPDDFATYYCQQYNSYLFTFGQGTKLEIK
notes: as for B1
B5: chimeric anti-PD-L1 antibody 105C5D7 (antibody, V domains shown)
VH: EVQLVESGGGLVQPGGSLRLSCAASGFTFSSYWMSWVRQAPGKGLEWVANIKQDGNEKYYVDSVKGRFTISRDNAKNSLYLQMNSLRAEDTAVYYCARNIKWGDAFDIWGQGTMVTVSS
VL: DIQMTQSPSSLSASVGDRVTITCRASQSISSYLNWYQQKPGKAPKLLIYAASSLQSGVPSRFSGSGSGTDFTLTISSLQPEDFAIYSCQQSYSIPLTFGGGTKVEIK
notes: as for B1
B6: chimeric anti-PD-L1 antibody 127D2F3 (antibody, V domains shown)
VH: EVQLVESGGGLVQPGGSLRLSCVASGFTFSSYWMSWVRQAPGKGLEWVANIKQDGSEKYYVDSVKGRLTISRDNAKNSLYLQMKSLRAEDTAVYYCARDPIYSSYFDYWGQGILVTVSS
VL: B5 VL with S31N, I85A, S87Y, S93G, L96F, G100P, E105D
notes: as for B1

Legend:
[1] = molecular target: T1, human PD-L1^ECD-hFc protein (human, UniProt Q9NZQ7 19-239, biotinylated in the PD-1 binding ELISA (Table 3) and in the Octet assay (Table 12)); experiment: ELISA, 100 nM mAb
T1 construct: The plain and the biotinylated protein are kept as one molecule; also called PD-L1-hFc; Immunogen A; not shown: human IgG Fc fragment (hFc)
T1 sequence (Q9NZQ7 19-239): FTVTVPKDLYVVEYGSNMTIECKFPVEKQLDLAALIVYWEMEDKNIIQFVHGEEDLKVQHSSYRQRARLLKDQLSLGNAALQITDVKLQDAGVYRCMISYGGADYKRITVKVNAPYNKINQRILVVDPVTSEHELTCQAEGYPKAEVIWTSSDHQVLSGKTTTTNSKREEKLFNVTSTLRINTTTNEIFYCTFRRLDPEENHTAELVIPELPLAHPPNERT
Protocol: (§1) 100 μL of the diluted recombinant proteins were added to each well of 96-well plate. The plates were sealed with plastic film and incubated at 4° C. overnight. The plates were washed twice with wash buffer (PBS+0.01% (v/v) Tween20), and incubated with blocking buffer (PBS+0.01% (v/v) Tween20+1% (w/w) BSA) at room temperature for 2 hours. The blocking buffer was aspirated away, and 100 μL of purified anti-PD-L1 antibodies were added to each well and incubated for 2 hours at 37° C. The plates were washed three times with wash buffer (PBS+0.01% (v/v) Tween20). HRP-conjugated secondary antibody (Sigma) was added to each well and incubated for 2 hours at 37° C. After the plates were washed three times with wash buffer, 100 μL TMB substrate were added to each well, and the plates were incubated for 30 minutes at room temperature. 100 μL stop solution (0.1N HCl) was added to each well to stop the reaction.

[2] = molecular target: T1, human PD-L1^ECD-hFc protein; experiment: ELISA, 0.01 nM mAb
Protocol: as §1

[3] = molecular target: T1, human PD-L1^ECD-hFc protein; experiment: ELISA, 0.0001 nM mAb
Protocol: as §1

[4] = molecular target: T2, full length human PD-L1 on cells (human, UniProt Q9NZQ7 19-290); experiment: cell-based or functional assay
T2 sequence (Q9NZQ7 19-290 limits assumed): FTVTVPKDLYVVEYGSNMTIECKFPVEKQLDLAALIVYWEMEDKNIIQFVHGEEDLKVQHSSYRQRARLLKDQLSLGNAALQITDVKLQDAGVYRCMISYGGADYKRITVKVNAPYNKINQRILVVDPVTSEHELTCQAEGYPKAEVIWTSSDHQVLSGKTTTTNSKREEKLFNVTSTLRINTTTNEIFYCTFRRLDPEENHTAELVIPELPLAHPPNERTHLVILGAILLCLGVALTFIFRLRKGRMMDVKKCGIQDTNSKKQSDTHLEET

[5] = molecular target: T3, full length cyno PD-L1 on cells (cyno, UniProt G7PSE7 19-290); experiment: FACS CHO-K1-cPD-L1, 1 nM mAb
T3 construct: also called CHO-K1-cPD-L1
T3 sequence (G7PSE7 entry or part of it limits assumed): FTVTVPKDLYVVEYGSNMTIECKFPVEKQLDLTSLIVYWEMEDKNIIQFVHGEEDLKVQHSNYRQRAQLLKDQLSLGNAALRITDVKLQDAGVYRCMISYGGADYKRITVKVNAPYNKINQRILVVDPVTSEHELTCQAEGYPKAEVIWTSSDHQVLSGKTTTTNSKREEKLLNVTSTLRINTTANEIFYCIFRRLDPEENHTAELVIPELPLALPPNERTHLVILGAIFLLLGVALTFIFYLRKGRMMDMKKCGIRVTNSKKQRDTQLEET
Protocol: (§2) Other CHO-K1 were stably transfected with a pIRES plasmid containing the nucleic acid sequence encoding full length cyno PD-L1 to generate CHO-K1 cells stably expressing cyno PD-L1 (herein referred to as CHO-K1-cPD-L1 cells). […] The culture media was aspirated, and the cells were washed twice with HBSS (Hanks Balanced Salt Solution, Invitrogen). The cells were treated with enzyme-free cell dissociation solution (Versene solution, Invitrogen) and collected. The cells were then washed twice with HBSS, cell counts were determined, and cells were resuspended with HBSS at 2×10⁶ cells/mL. Goat serum was added to the cell suspension to a final concentration of 1%, and the cells were blocked for 30 minutes on ice and then washed twice with HBSS. The cells were collected after centrifugation and resuspended in FACS buffer (HBSS+1% BSA, v/v) at 2×10⁶ cells/mL. 100 μL of the cell suspension were then added to each well of 96-well plate. 100 μL of purified anti-PD-L1 antibodies from Example 2 were added to each well of the 96-well plate and incubated for 2 hours on ice. […] The samples were washed three times with FACS buffer, and 100 μL fixation buffer (4% paraformaldehyde v/v) were added to each well and incubated for 10 minutes. The cells were then washed twice with FACS buffer and resuspended in 100 μL FACS buffer. The mean fluorescence intensity (MFI) was determined using FACS Calibur (BD), and the results are shown in FIGS. 7-8 and in Tables 10-11.

[6] = molecular target: T2, full length human PD-L1 on cells; experiment: FACS CHO-K1-hPD-L1, 10 nM mAb
Protocol: as §2

[7] = molecular target: T3, full length cyno PD-L1 on cells; experiment: FACS CHO-K1-cPD-L1, 0.1 nM mAb
Protocol: as §2

[8] = molecular target: T3, full length cyno PD-L1 on cells; experiment: FACS CHO-K1-cPD-L1, 0.01 nM mAb
Protocol: as §2

[9] = molecular target: T2, full length human PD-L1 on cells; experiment: FACS CHO-K1-hPD-L1, 0.001 nM mAb
Protocol: as §2

[10] = molecular target: T1, human PD-L1^ECD-hFc protein; experiment: ELISA, 30 nM mAb
Protocol: as §1

[11] = molecular target: T4, cyno PD-L1^ECD-hFc protein (cyno, UniProt G7PSE7 19-239); experiment: ELISA, 30 nM mAb
T4 construct: also called Cyno Monkey PD-L1^ECD-hFc
T4 sequence (G7PSE7 entry or part of it limits assumed): as the sequence (Q9NZQ7 19-239) above, with A33T, A34S, S62N, R68Q, Q82R, F173L, T185A, T192I, H215L counted along it
Protocol: as §1

[12] = molecular target: T1, human PD-L1^ECD-hFc protein; experiment: ELISA, 0.123 nM mAb
Protocol: as §1

[13] = molecular target: T4, cyno PD-L1^ECD-hFc protein; experiment: ELISA, 0.123 nM mAb
Protocol: as §1

[14] = molecular target: T1, human PD-L1^ECD-hFc protein; experiment: ELISA, 3.333 nM mAb
Protocol: as §1

[15] = molecular target: T4, cyno PD-L1^ECD-hFc protein; experiment: ELISA, 3.333 nM mAb
Protocol: as §1

[16] = molecular target: T2, full length human PD-L1 on cells; experiment: FACS CHO-K1-hPD-L1, 0.41 nM mAb
Protocol: as §2

[17] = molecular target: T3, full length cyno PD-L1 on cells; experiment: FACS CHO-K1-cPD-L1, 0.41 nM mAb
Protocol: as §2

[18] = molecular target: T2, full length human PD-L1 on cells; experiment: FACS CHO-K1-hPD-L1, 11.11 nM mAb

Binder	OD450 nm [1]	OD450 nm [2]	OD450 nm [3]	IL-2 (pg/mL), MLR donor 2, 0.001 µg/mL mAb [4]	IL-2 (pg/mL), MLR donor 2, 0.01 µg/mL mAb [4]	IL-2 (pg/mL), MLR donor 2, 0.1 µg/mL mAb [4]	IL-2 (pg/mL), MLR donor 2, 1 µg/mL mAb [4]	Mean fluorescence intensity [5]	Mean fluorescence intensity [6]	Mean fluorescence intensity [7]	Mean fluorescence intensity [8]	Mean fluorescence intensity [9]	OD450 nm [10]	OD450 nm [11]	OD450 nm [12]	OD450 nm [13]	OD450 nm [14]	OD450 nm [15]	Mean fluorescence intensity [16]	Mean fluorescence intensity [17]	other results
B1	2.7	0.4	0.21	73.4 pg/mL	130 pg/mL	120 pg/mL	94.4 pg/mL	77.2	134	17	3.38	2.66	–	–	–	–	–	–	–	–	–
B2	–	–	–	–	–	–	–	–	–	–	–	–	1.81	1.81	0.72	0.72	2.03	2.03	87	83.2	Mean fluorescence intensity [18]: 114
B3	–	–	–	–	–	–	–	–	–	–	–	–	1.95	2.06	0.84	0.91	1.73	2	105	74.5	Mean fluorescence intensity [18]: 210
B4	2.69	0.28	0.2	54.2 pg/mL	90.1 pg/mL	110 pg/mL	140 pg/mL	94.9	213	19.8	3.83	1.88	–	–	–	–	–	–	–	–	–
B5	–	–	–	–	–	–	–	–	–	–	–	–	1.53	1.53	0.67	0.67	1.5	1.5	137	83.8	Mean fluorescence intensity [18]: 201
B6	2.63	0.38	0.2	68.2 pg/mL	100 pg/mL	71.5 pg/mL	101 pg/mL	80.5	235	14.3	3.08	2.1	–	–	–	–	–	–	–	–	–
